Results on two substances are retold here after publication PMC3826083.

Assay [1] has as its target mCherry-R125I. Description: fluorescence polarisation.
Assay [2] addresses mCherry-R125I/T127V. Description: fluorescence polarisation.

A word on the Kd: it is the equilibrium constant for the complex coming apart. As for mCherry-R125I, the Kd in assay [1] was determined as 35 µM.
In assay [2], mCherry-R125I/T127V yielded a Kd of 0.091 µM.
